For the test, the target named is HA-PLK1 (human, UniProt P53350 1-603). In words: cell-based or functional assay.
HA-PLK1, sequence (P53350 whole entry): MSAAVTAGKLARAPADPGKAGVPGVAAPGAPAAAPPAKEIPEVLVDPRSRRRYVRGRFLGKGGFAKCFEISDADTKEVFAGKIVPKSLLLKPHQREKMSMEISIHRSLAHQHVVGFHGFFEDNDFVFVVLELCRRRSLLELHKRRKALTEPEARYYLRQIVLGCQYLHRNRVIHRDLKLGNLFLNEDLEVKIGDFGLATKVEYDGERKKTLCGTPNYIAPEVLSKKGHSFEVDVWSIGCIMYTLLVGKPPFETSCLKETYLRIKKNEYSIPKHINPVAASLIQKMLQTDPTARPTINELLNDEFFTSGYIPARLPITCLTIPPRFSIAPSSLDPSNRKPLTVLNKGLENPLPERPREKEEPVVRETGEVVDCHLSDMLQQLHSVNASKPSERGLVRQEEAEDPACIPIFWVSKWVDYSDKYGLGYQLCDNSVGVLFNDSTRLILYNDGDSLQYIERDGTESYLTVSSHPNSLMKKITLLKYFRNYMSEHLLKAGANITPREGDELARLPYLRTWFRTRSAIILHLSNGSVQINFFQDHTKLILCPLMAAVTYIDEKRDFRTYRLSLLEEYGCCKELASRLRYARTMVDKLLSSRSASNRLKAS

B1: GST-RGCC (natural protein, UniProt Q9H4X1 1-137, looked up)
chain: MKPPAAQGSPAAAAAAAPALDSAAAEDLSDALCEFDAVLADFASPFHERHFHYEEHLERMKRRSSASVSDSSGFSDSESADSLYRNSFSFSDEKLNSPTDSTPALLSATVTPQKAKLGDTKELEAFIADLDKTLASM
For B1, the “in vitro PLK1 kinase activity (universal kinase activity kit, purified PLK1 with AMPKα2 and ATP); EC50 of RGCC for activation of PLK1” value was determined as 19.4 nM.

(Values after PMC10722681, “RGCC-mediated PLK1 activity drives breast cancer lung metastasis by phosphorylating AMPKα2 to activate oxidative phosphorylation and fatty acid oxidation” (Journal of Experimental & Clinical Cancer Research : CR, 2023).)
